The values below come from article PMC3538135.

The target of this data set is CD4 (recombinant CD4 antigen) (UniProt P01730 26-396). Description: ellipsometry.

B1: IFN-gamma aptamer (nonsense control) (ssDNA)
DNA: GGGGTTGGTTGTGTTGGGTGTTGTGTCCAACCCCC
modifications: 5' thiol-C6
For B1, the binding result is listed as “no binding”.
